Assay results from the supplement of paper PMC9170038.

Tested on: MS2 coat protein
Test: apparent KD of MS2 coat protein; designed switch direction (-1 OFF switch, 1 ON switch): -1; higher = weaker reporter binding
In short: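 Designed RNA switches with common flanks were made on Illumina chips by stalled E. coli RNA polymerase. Titration with SNAP-549-labelled MS2 coat protein doubled from 0.7 or 1.5 nM up to 3 µM. Apparent KD is each design's median over clusters after curve-fitting normalised fluorescence.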

[1] = Eterna round: R95, input ligand: FMN 200 uM
[2] = Eterna round: R95, input ligand: microRNA oligo, concentration not stated
[3] = Eterna round: R95, input ligand: none
[4] = input ligand: microRNA oligo, concentration not stated

Row | Sequence | apparent KD of MS2 coat protein (input ligand: FMN 200 uM) | apparent KD of MS2 coat protein (input ligand: none) | apparent KD of MS2 coat protein [1] | apparent KD of MS2 coat protein [2] | apparent KD of MS2 coat protein [3] | apparent KD of MS2 coat protein [4]
1 | ACUGGUCGAGGAUAUACGAUCGUGCUUCGGCACGUAAGAUCACAUGAGGAUCACCCAUGUAGAAGGCGACCAGU [Mod 4 - Jieux - Exclusion 2] (Eterna round: R97, puzzle: Exclusion 2) | 246 nM | 35.3 nM | – | – | – | –
2 | UUAUUGGUAGUGAGGAUAUCGGAUAGAUAGAUAUUCGAGAAGGCACAUGAGGAUCACCCAUGUAAGAUUGGAAA [JR_BMEx4_Sub045] (Eterna round: R97, puzzle: Brourd's mod of Exclusion 4) | 155 nM | 38.5 nM | – | – | – | –
3 | AUUUAAACAUAGGAUAUCGAAUUUAUCAUUUAACGAGAAGGAUGAACAUGAGGAUCACCCAUGUGGUAUCAUGG [Mat - Exclusion 6 - JL Mod - D4] (puzzle: Exclusion 6) | – | – | 398 nM | 279 nM | 368 nM | –
4 | ACCUCACAUGAGGAUCACCCAUGUCAGGAUAUCUAAUAUUGCAGCGUUCCCGACGCUGAGAGAAGGGACAUUAA [EX1 #30] (Eterna round: R97, puzzle: Exclusion 1) | 29.6 nM | 17.7 nM | – | – | – | –
5 | ACAUUCAGAGGAUAUGCGCAUAGAUAAGACUUUGUUUCUUAACAUGAGGAUCACCCAUGUAGAAGGCUGUACCC [Ex2 #66] (Eterna round: R97, puzzle: Exclusion 2) | 26.6 nM | 20.9 nM | – | – | – | –
6 | GUCACCUCGGUGACAAAGCACAUGAGGAUCACCCAUGUAUGUGCUUGGAAACAAGCAUUUUGUUCGUCUUAUAAGAA [same principle] (Eterna round: R96, puzzle: Sensor v2, turn-off variant) | 22.7 nM | 21.6 nM | – | – | – | 95.4 nM
7 | GUGUACCGAGGAUAUGCUGGAAUCUAGCGAAGCUAGGUUCCACAUGAGGAUCACCCAUGUAGAAGGUGGUACAC [Dot plot directed A v7] (puzzle: Exclusion 2) | – | – | – | 55.5 nM | – | –
8 | CCACGACAUGAGGAUCACCCAUGUCAGGAUAUCCCUCAUUGUAUGAAAAUACAAUGAGGGAGAAGGGACGUGAC [SS1 Omei 2] (puzzle: Exclusion 1) | – | – | – | 27.1 nM | – | –
9 | CGUGACUCAGGAUAUCUAUAGUAUCACAUGAGGAUCACCCAUGUCCAGCGAAAGCUGGAGGGAGAAGGGAGUCACG [Fiskers Ex 5 - 42] (puzzle: Exclusion 5) | – | – | 71.3 nM | 130 nM | 229 nM | –
10 | AAAACACAUGAGGAUCACCCAUGUGAGGAUAUGUUGAUUUUGAUCAAAGUUAAGAUUAACAGAAGGCACAUAAA [JR_Exclusion1_Sub018] (puzzle: Exclusion 1) | – | – | 34.5 nM | 36.1 nM | 35.2 nM | –
11 | AGAAAUGCCCAUGGCCGCAAGCUUUCUGCUUGUCUUACCACAUGAGGAUCACCCAUGUGACAUGGGCUCCUUAUAAU [Soralaer] (puzzle: Sensor v3, turn-off variant 2) | – | – | 14.4 nM | 11 nM | 13.2 nM | –
12 | UACAUGAGGAUCACCCAUGUUUUGUCGUGUAUGGUAUUUAUCUAGGAUAUCAUUUUAUCUAGUUAUGAGAAGGAGAAUAUUAAU [JMF's solution 89] (Eterna round: R96, puzzle: Exclusion NG 3) | – | – | – | – | – | 26.6 nM
13 | AGUAGUUGUUUCCGUUCUUACAUGAGGAUCACCCAUGUUUCUUGACGUGCACGCGAUGCUCGUCAGACUACCAGAUG [salish99_TOv1_r3_057] (Eterna round: R96, puzzle: Sensor v3, turn-off variant 1) | 60.5 nM | 57 nM | – | – | – | 37.4 nM
14 | UCGGCGCGAGGAUAUGCGGUUCCUGCUUCGGGCCGGAGCGUACAUGAGGAUCACCCAUGUAGAAGGCGCGCCGC [Apr-15 SS2-38] (puzzle: Exclusion 2) | – | – | – | 12.1 nM | – | –
15 | GAUUAUGCGAGCUUUAGGGACAUGAGGAUCACCCAUGUUCGUCUUAUUAAUCUAGGUGCGCUAACAUACCUAAAUCU [JMF 47] (puzzle: Sensor v3, turn-off variant 1) | – | – | 21.5 nM | 32 nM | 23.7 nM | –
16 | AUCCUUAACAAGGAUAUCGGGCGGGAAAUUGUUUGAGAAGGUGUAACAUGAGGAUCACCCAUGUGGCGCGUGGA [-20.8, -18.9 kcal, A 28%] (Eterna round: R97, puzzle: Exclusion 6) | 54.6 nM | 56.6 nM | – | – | – | –
17 | GUCGUGCGGCUUUGCUGUACGAGUACAUGAGGAUCACCCAUGUAGGAUAUGGCACGCUUUGCGUGCCAGAAGGGCGUGCGUUGG [Excl-NG3-LRO10] (Eterna round: R96, puzzle: Exclusion NG 3) | 35.1 nM | 28.4 nM | – | – | – | 21.5 nM
18 | AUACCACGAGGAUAUCGUCUAUAAUACAUGAGGAUCACCCAUGUUAUAUAUGUAAUGUUUCGAGAAGGCGUGUUUU [JR_E5_Sub082] (puzzle: Exclusion 5) | – | – | – | 14.7 nM | – | –

Row | Sequence | apparent KD of MS2 coat protein (input ligand: FMN 200 uM) | apparent KD of MS2 coat protein (input ligand: none) | apparent KD of MS2 coat protein [1] | apparent KD of MS2 coat protein [2] | apparent KD of MS2 coat protein [3] | apparent KD of MS2 coat protein [4]
19 | CUCCUCAUGACGCCCAACCACAUGAGGAUCACCCAUGUGCAGGCUUUUUGUCGUCUUAUAAUAAAACCGAGGAUGCG [Edusveti] (puzzle: Sensor v3, turn-off variant 1) | – | – | 13.3 nM | 49.4 nM | 13 nM | –
20 | UGUGUUUUUGUGAGGAUAUACUGUUUGUUUUGUUUGUAGAAGGUACAUGAGGAUCACCCAUGUUGUGUUUGGUU [JR_BME4_Sub032] (puzzle: Brourd's mod of Exclusion 4) | – | – | – | 30.9 nM | – | –
21 | CAGAAACAUGAGGAUCACCCAUGUGAGGAUAUGCGUACGUUGUCCGUAGGCGACGUGCGCAGAAGGCGCAAAGG [Mat - Mod of JL D85] (puzzle: Exclusion 1) | – | – | 115 nM | 59.3 nM | 116 nM | –
22 | AGAAAUGCCCAUGGCCACAAGCUCUUUGCUUGUCUUACUACAUGAGGAUCACCCAUGUAACAUGGGCUCCUGAUAAU [Been] (puzzle: Sensor v3, turn-off variant 2) | – | – | 12.2 nM | 9.19 nM | 11.3 nM | –
23 | ACGGCUGAAGGAUAUGCAGUGACCACAAAGGUAUGACUAUCACAUGAGGAUCACCCAUGUAGAAGGUCGGCGCC [Eternabot (L2) Solution 29] (Eterna round: R97, puzzle: Exclusion 2) | 13.6 nM | 14.4 nM | – | – | – | –
24 | CGUCUGUAAGGAUAUGGUAGCAUUUACAUGAGGAUCACCCAUGUUACAUGGGACUAGUGACUAGAAGGUACGAACG [EX5 #54] (Eterna round: R97, puzzle: Exclusion 5) | 106 nM | 142 nM | – | – | – | –
25 | GCCUCACAUGAGGAUCACCCAUGUGAGGAUAUUGAGUUACCAGGCGAACAAGCGACUACGAGAAGGCACGUGGA [Eternabot (L2) Solution 85] (Eterna round: R97, puzzle: Exclusion 1) | 12 nM | 13.9 nM | – | – | – | –
26 | AGUAACUAUCACGAAAGUGAUAGUUACAAAACAGGUGAAACAUGAGGAUCACCCAUGUCCUCAUUUGCUCGUCUUAU [Sensor 3 - 3] (puzzle: Sensor v3, turn-off variant 2) | – | – | 793 nM | 384 nM | 857 nM | –
27 | CGGCAUGUCUGAGGAUAUCUGCACGUUUAGUGCAGAGAAGGCAGAACAUGAGGAUCACCCAUGUAGAUCAUUAACCGAUUAAUU [ENG1/7-A2] (Eterna round: R96, puzzle: Exclusion NG 1) | – | – | – | – | – | 182 nM
28 | CUUUUGUGAGGAUAUUGGUAGUAAAUAAAUAAAAUUAUUACCGAGAAGGUACAUGAGGAUCACCCAUGUUCCUC [Salish 062 v18] (Eterna round: R97, puzzle: Exclusion 4) | 32.1 nM | 18.2 nM | – | – | – | –
29 | CUUCACCCACCAGAGCUCACCCACAUACCUACUCAGGUGACAUGAGGAUCACCCAUGUUUUUUGCCCGUCUUAUCUU [Vexebedi] (puzzle: Sensor v3, turn-off variant 2) | – | – | 28.3 nM | 216 nM | 30.4 nM | –
30 | UAAUAACAAGCGAGAUCCUACAUGAGGAUCACCCAUGUGCUCGUCUUAUAAGGUACUGUGACGAUAGUCACGGUACC [Mat - Sensor, turn-off var - Eli Mod - D96] (Eterna round: R97, puzzle: Sensor, turn-off variant 1) | 17.8 nM | 18.2 nM | – | – | – | –
31 | UUAAAGUCAGGAUAUACAUGAGGAUCACCCAUGUAAAAUUUUAAUUUAAUUUGAAGGUGUAGAAGGGACAAAUU [Ex3 #36] (Eterna round: R97, puzzle: Exclusion 3) | 25.6 nM | 26 nM | – | – | – | –
32 | GGCCCGGGAGGAUAUACAUGAGGAUCACCCAUGUUGAGCUUGAGGAUCUUCGAGUUCGGUAGAAGGCCCGGGCC [-35.1, -32.9 kcal, 22% A, 1, 0] (Eterna round: R97, puzzle: Exclusion 3) | 201 nM | 27.2 nM | – | – | – | –
33 | UCAAGUAUGUAGGAUAUCGAUGUCUACGGACAUCGAGAAGGACGUACAUGAGGAUCACCCAUGUAACUUGCAUG [Exclusion 6 - B - 10:d] (Eterna round: R96, puzzle: Exclusion 6) | 238 nM | 283 nM | – | – | – | 144 nM
34 | CCAGGCUGUGUGAGGAUAUGCUGGUCCUUGGAUCAGCAGAAGGCACAUGAGGAUCACCCAUGUGAGGAGCUUGG [JL bmx4 3.28] (puzzle: Brourd's mod of Exclusion 4) | – | – | – | 19.9 nM | – | –
35 | AGUUGCGCAGGAUAUACAUGAGGAUCACCCAUGUGAGAGAAAUAAGUGAGGAAGAAAAGUAGAAGGGCGUGACG [Mat - Exclusion 3 - Mod of Salish D73] (puzzle: Exclusion 3) | – | – | 281 nM | 53.8 nM | 57.3 nM | –
